Square brackets hold non-standard residues; d marks the D form. Nle = CCCC[C@H](N)C(=O)O
Legend:
hMC4-R = target: T1, hMC4-R (human, UniProt P32245 1-332); assay: assay not described for this value
T1 construct: whole, on cells; Membrane preparation; also called MCR-4

[1] = target: T2, MC1-R of B-16 mouse melanoma cells (mouse, UniProt Q01727 1-315); assay: assay not described for this value
T2 construct: whole, on cells; Membrane preparation; also called MCR-1
T2 sequence (Q01727 whole entry): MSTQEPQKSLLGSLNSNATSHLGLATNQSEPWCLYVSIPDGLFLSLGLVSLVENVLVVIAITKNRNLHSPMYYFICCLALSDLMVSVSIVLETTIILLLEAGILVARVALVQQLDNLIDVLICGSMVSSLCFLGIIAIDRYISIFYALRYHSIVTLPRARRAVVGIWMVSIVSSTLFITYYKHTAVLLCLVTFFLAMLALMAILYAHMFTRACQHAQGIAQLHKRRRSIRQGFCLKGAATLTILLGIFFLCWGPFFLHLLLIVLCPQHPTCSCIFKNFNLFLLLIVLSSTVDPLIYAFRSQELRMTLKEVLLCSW

T1 sequence (P32245 whole entry): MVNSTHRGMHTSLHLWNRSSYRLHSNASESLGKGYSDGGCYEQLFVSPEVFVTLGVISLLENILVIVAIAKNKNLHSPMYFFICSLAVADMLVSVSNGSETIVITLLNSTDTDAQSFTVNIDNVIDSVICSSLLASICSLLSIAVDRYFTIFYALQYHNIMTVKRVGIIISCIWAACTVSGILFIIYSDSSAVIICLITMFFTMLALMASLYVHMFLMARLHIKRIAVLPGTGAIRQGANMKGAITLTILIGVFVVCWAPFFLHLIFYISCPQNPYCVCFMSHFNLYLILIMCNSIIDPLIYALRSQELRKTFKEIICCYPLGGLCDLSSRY

Ki (hMC4-R): 2000 nM | Ki [1]: 100 nM
B1: Ac-Nle-Ala-His-D-Phe-Arg-Trp-NH2 (peptide)
peptide: Ac-[Nle]AH[dF]RW-NH2
notes: Linear parent peptide, not complexed to a metal; also called parent melanocortin peptide

Reference: patent publication EP1379283B1 (Palatin Technologies, Inc., dated 2002)
